Experimental data from publication PMC5651819, “AtSPX1 affects the AtPHR1–DNA-binding equilibrium by binding monomeric AtPHR1 in solution” (Biochemical Journal, 2017).

Molecular target: T1, MBP–AtdPHR1 (DNA-binding domain and coiled-coil domain of AtPHR1 fused to maltose-binding protein) (Arabidopsis thaliana, UniProt Q94CL7 208-362)
T1 construct: cloned in pMAL-c2x via BamHI and HindIII; the methods print 208–362, and the predicted mass of 60 651 fits 208–362 with MBP; also called MBPdAtPHR1; MBPdPHR1; source: E. coli BL21-gold (DE3), purified (amylose resin, IEX on HiTrap Q-HP); not shown: MBP, N-terminal, kept
T1 sequence (Q94CL7 208-362): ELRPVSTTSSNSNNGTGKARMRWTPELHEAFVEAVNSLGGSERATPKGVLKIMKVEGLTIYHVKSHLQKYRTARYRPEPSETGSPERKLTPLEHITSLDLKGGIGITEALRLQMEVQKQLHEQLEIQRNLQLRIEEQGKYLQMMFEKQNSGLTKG
Assay: pull-down; MBP–AtdPHR1 from cell lysate immobilised on amylose matrix and washed, incubated with affinity-purified GST–AtSPX1 for 2 h at 4°C, eluted with 10 mM maltose, anti-GST blot; buffer with Pi (PBS pH 7.4, 200 mM NaCl, 1 mM EDTA, 1 mM DTT), compared with buffer without Pi (20 mM Tris pH 7.5, 200 mM NaCl, 1 mM EDTA, 1 mM DTT)
Details: both partners purified

B1: GST–AtSPX1 (N-terminal GST-tagged full-length AtSPX1) (natural protein, Arabidopsis thaliana, UniProt Q8LBH4 1-256, looked up)
chain: MKFGKSLSNQIEQTLPEWQDKFLSYKELKKRLKLIGSKTADRPVKRLRLDEFSVGISKEEINFIQLLEDELEKFNNFFVEKEEEYIIRLKEFRDRIAKAKDSMEKMIKIRKEIVDFHGEMVLLENYSALNYTGLVKILKKYDKRTGDLMRLPFIQKVLQQPFYTTDLLFKLVKESEAMLDQIFPANETESEIIQAELSEHKFMESLHMKSTIAALRVLKEIRSGSSTVSVFSLPPLQLNGLDETWKKIPLLEQEAK
notes: AtSPX1, Arabidopsis thaliana, At5G20150.1, full-length cDNA in pGEX-2T via BamHI and EcoRI; also called GST–SPX1; not shown: GST, N-terminal, kept
- fold more in elution fraction E1 in the presence of phosphate than in its absence: 1.5 fold
- fold more in elution fraction E2 in the presence of phosphate than in its absence: 3.5 fold
